The values that follow come from the RNAGym collection of RNA variant scans (doi:10.7554/elife.80360).

First the molecules themselves.
B1: CPEB3 Ribozyme (parent)
chain: GGGGGCCACAGCAGAAGCGUUCACGUCGCGGCCCCUGUCAGAUUCUGGUGAAUCUGCGAAUUCUGCUGU

Variants of B1 are the subject of this series. The series is described as follows: self-cleavage, relative activity (ratio to wild type); higher = more cleavage; co-transcriptional.
For the variant G2U G50C, the self-cleavage is 0.0712.

Turning to G2U G50U, the self-cleavage worked out at 0.0728.

Take G3C C39G: the self-cleavage turned out to be 0.0769.

On to G3C C39U, for which the self-cleavage was 0.0426.

For the variant G3A U53G, the self-cleavage was 0.284.

As to G3A U53C, the self-cleavage is 0.416.

Consider G3C G14U, for which the self-cleavage came to 0.0909.

For the variant G3C G14C, the self-cleavage turned out to be 0.0467.

Turning to G3C G14A, the self-cleavage worked out at 0.0364.

Consider G3C G41U, for which the self-cleavage was 0.0159.

On to G3C G41A, for which the self-cleavage turned out to be 0.0418.

As to G3A G65A, the self-cleavage amounted to 0.527.

G3A G65U: the self-cleavage was found to be 0.285.

Take G2U G58U: the self-cleavage stood at 0.0822.

Regarding G2U G58A, the self-cleavage was 0.0612.

With G2U G58C, the self-cleavage amounted to 0.0697.

With G3C U38G, the self-cleavage was determined as 0.0344.

For G3C U38A, the self-cleavage stood at 0.1.

As to G2U G30U, the self-cleavage was determined as 0.0322.

For the variant G2U U44A, the self-cleavage worked out at 0.0745.

For the variant G2U U44G, the self-cleavage was found to be 0.0788.

On to G2U U44C, for which the self-cleavage amounted to 0.067.

Regarding G3A C22G, the self-cleavage stood at 0.0453.

In the case of G3A C22A, the self-cleavage was found to be 0.0741.

Take G3A G47C: the self-cleavage amounted to 0.658.

G3A G47U: the self-cleavage came to 0.682.

Take G3A U62C: the self-cleavage worked out at 0.357.

Regarding G3A U62G, the self-cleavage was found to be 0.392.

With G3A U62A, the self-cleavage worked out at 0.312.

As to G3C A40G, the self-cleavage turned out to be 0.

In the case of G3C A40U, the self-cleavage worked out at 0.016.

As for G3C A40C, the self-cleavage worked out at 0.0512.

As to G3C C33U, the self-cleavage worked out at 0.0583.

G3C C33A: the self-cleavage is 0.0485.

On to G3A G5A, for which the self-cleavage came out at 0.101.

G3A G5U: the self-cleavage was determined as 0.0857.

In the case of G3C G5A, the self-cleavage amounted to 0.0417.

Consider G3C G5U, for which the self-cleavage turned out to be 0.00743.

G3C C6G: the self-cleavage stood at 0.0449.

Consider G3C C6U, for which the self-cleavage is 0.0391.

Take G3C A13C: the self-cleavage amounted to 0.0417.

On to G3C A13U, for which the self-cleavage came out at 0.0542.

As for G3A C57U, the self-cleavage was found to be 0.0942.

Consider G3A C57A, for which the self-cleavage was found to be 0.11.

As for G3A C57G, the self-cleavage came out at 0.175.

As for G3C G58A, the self-cleavage was 0.0258.

Consider G3C G58U, for which the self-cleavage was determined as 0.216.

For the variant G3A C45U, the self-cleavage turned out to be 0.634.

As to G3C A8C, the self-cleavage came out at 0.0756.

As to G3C A8G, the self-cleavage was determined as 0.0364.

On to G3C A8U, for which the self-cleavage was determined as 0.123.

With G3A U55C, the self-cleavage came to 0.187.

Turning to G3A U55G, the self-cleavage came out at 0.291.

For the variant G3C C54G, the self-cleavage was 0.0518.

G3C G68A: the self-cleavage stood at 0.4.

In the case of G3C G68C, the self-cleavage was 0.432.

G3A C35G: the self-cleavage amounted to 0.0971.

Regarding G3A C35U, the self-cleavage worked out at 0.215.

As for G3C U44A, the self-cleavage stood at 0.0725.

As to G3C U44G, the self-cleavage worked out at 0.054.

Regarding G3C G19A, the self-cleavage is 0.0368.

As to G3C G19C, the self-cleavage was determined as 0.0344.

Regarding G3A A16C, the self-cleavage worked out at 0.0704.

On to G3A A16U, for which the self-cleavage was found to be 0.185.

Consider G3A U61C, for which the self-cleavage worked out at 0.246.

Consider G3A U61A, for which the self-cleavage turned out to be 0.269.

For G3A C39A, the self-cleavage turned out to be 0.328.

Turning to G3A C39U, the self-cleavage was found to be 0.273.

With G3C A10G, the self-cleavage was determined as 0.215.

With G3C A10C, the self-cleavage was 0.175.

As for G3C G56U, the self-cleavage was 0.033.

In the case of G3A G19A, the self-cleavage amounted to 0.105.

As for G3A G19U, the self-cleavage was found to be 0.092.

As for G3A G19C, the self-cleavage was 0.0671.

Consider G3C C9G, for which the self-cleavage worked out at 0.166.

As to G3C C9A, the self-cleavage was determined as 0.511.

Regarding G3A A59U, the self-cleavage was found to be 0.198.

Take G3A A59G: the self-cleavage is 0.362.

Regarding G3A G50A, the self-cleavage stood at 0.645.

G3A C54G: the self-cleavage turned out to be 0.25.

Turning to G3A C54A, the self-cleavage came to 0.243.

Consider G3A C54U, for which the self-cleavage came out at 0.602.

In the case of G3C A23C, the self-cleavage turned out to be 0.0635.

Consider G3C A23G, for which the self-cleavage stood at 0.0477.

On to G3C G37U, for which the self-cleavage stood at 0.0466.

As to G3C G37C, the self-cleavage amounted to 0.0266.

Turning to G3C G37A, the self-cleavage came to 0.0325.

On to G3A A52G, for which the self-cleavage came to 0.563.

With G3A A52U, the self-cleavage came out at 0.556.

For G3A C12U, the self-cleavage is 0.723.

As to G3A C12A, the self-cleavage came to 0.324.

With G3A C12G, the self-cleavage amounted to 0.326.

Regarding G3C A42U, the self-cleavage worked out at 0.0888.

Take G3C A42C: the self-cleavage was determined as 0.0214.

Turning to G2U U53C, the self-cleavage turned out to be 0.0669.

As to G2U U53G, the self-cleavage was determined as 0.0896.

With G2U U53A, the self-cleavage was 0.0959.

Consider G3A G37A, for which the self-cleavage came out at 0.143.

G3A G37U: the self-cleavage was determined as 0.0837.

As for G3A G58U, the self-cleavage was determined as 0.701.

Consider G2U C39A, for which the self-cleavage turned out to be 0.0535.

As for G2U C39U, the self-cleavage came to 0.0814.

For G2U C39G, the self-cleavage was found to be 0.045.

With G3C G65C, the self-cleavage was 0.0156.

G3C G65U: the self-cleavage was 0.0451.

Turning to G3A U49A, the self-cleavage was 0.627.

For G3A U49G, the self-cleavage came to 0.392.

On to G3C G50A, for which the self-cleavage was found to be 0.0909.

With G3C C7G, the self-cleavage worked out at 0.0644.

Take G3C C7A: the self-cleavage was determined as 0.026.

In the case of G3C C7U, the self-cleavage was found to be 0.102.

Turning to G3C C63A, the self-cleavage is 0.0751.

In the case of G3A A10C, the self-cleavage was 0.876.

For G3A A10U, the self-cleavage stood at 0.889.

On to G3A A10G, for which the self-cleavage was 0.679.

With G3A G31A, the self-cleavage came to 0.224.

G3A G31C: the self-cleavage was found to be 0.122.

On to G3A G48U, for which the self-cleavage is 0.722.

With G3A G48A, the self-cleavage was 0.69.

Regarding G3C G47A, the self-cleavage stood at 0.264.

Take G3C G47U: the self-cleavage amounted to 0.0876.

Turning to G3C G47C, the self-cleavage was found to be 0.136.

With G3A G4A, the self-cleavage was 0.204.

As for G3A G4U, the self-cleavage came out at 0.0692.

For the variant G3A G4C, the self-cleavage came to 0.165.

Turning to G3A G14C, the self-cleavage turned out to be 0.159.

In the case of G3C G25C, the self-cleavage was 0.0602.

Turning to G3C G25A, the self-cleavage was found to be 0.0214.

Turning to G3C G25U, the self-cleavage turned out to be 0.047.

Take G3A C33U: the self-cleavage worked out at 0.231.

On to G3A C33G, for which the self-cleavage amounted to 0.153.

For G3C A59C, the self-cleavage is 0.0244.

With G3C A59G, the self-cleavage is 0.0736.

On to G3C U20A, for which the self-cleavage came to 0.0845.

As for G3C U20G, the self-cleavage came to 0.0823.

Turning to G3C C22U, the self-cleavage was found to be 0.0738.

G3C C22A: the self-cleavage stood at 0.0184.

Take G3C C22G: the self-cleavage came to 0.0359.

In the case of G2U C45G, the self-cleavage came to 0.0316.

As to G2U C45A, the self-cleavage was 0.0935.

In the case of G2U C45U, the self-cleavage worked out at 0.102.

Consider G3A G56A, for which the self-cleavage was 0.26.

For the variant G3A G56U, the self-cleavage worked out at 0.467.

In the case of G2U G14C, the self-cleavage is 0.0522.

With G2U G14U, the self-cleavage was 0.0888.

On to G3A G41U, for which the self-cleavage was 0.277.

With G3A G41A, the self-cleavage came out at 0.222.

As to G3C C18G, the self-cleavage was found to be 0.0441.

In the case of G3C C18A, the self-cleavage was 0.058.

Consider G3C C18U, for which the self-cleavage was found to be 0.0442.

G3A G11U: the self-cleavage turned out to be 0.402.

On to G3A G11C, for which the self-cleavage stood at 0.33.

For the variant G3A G11A, the self-cleavage was determined as 0.48.

In the case of G3C G17C, the self-cleavage came to 0.0303.

In the case of G3C G17U, the self-cleavage worked out at 0.0348.

On to G3C G17A, for which the self-cleavage was 0.0395.

Consider G3A U38G, for which the self-cleavage amounted to 0.113.

As to G3C G48U, the self-cleavage was determined as 0.16.

For G3C G48C, the self-cleavage is 0.105.

With G3C G31C, the self-cleavage was 0.0554.

G2U C54U: the self-cleavage came to 0.0892.

Turning to G2U C54G, the self-cleavage is 0.0751.

Regarding G3C A16U, the self-cleavage was 0.0415.

Regarding G3C A16C, the self-cleavage is 0.0367.

Take G3C A16G: the self-cleavage was 0.162.

For the variant G3A U26A, the self-cleavage is 0.187.

Take G3A U26G: the self-cleavage was determined as 0.29.
